According to patent US20240181135A1, “BIOCHEMICAL ACTIVATION OF DYSFUNCTIONAL SKELETAL STEM CELLS FOR SKELETAL REGENERATION” (The Board of Trustees of the Leland Stanford Junior …, priority 2021, published 2024):

Test system: femoral fractures of ‘2-mo’ mice
Assay: Hydrogels containing recombinant Csf1 applied to femoral fractures of young mice (μCT and flow cytometry)
Type: in vivo, mouse
Details: 5 μg recombinant Csf1 in hydrogel, versus PBS
From the text: We also tested whether these increases in Csf1 affected bone maintenance and regeneration. […] Unexpectedly, however, femora harvested from transgenic mice at post-fracture day-21 had decreased mechanical strength compared to wild-type controls despite having increased BMD and similar callus volume (FIG. 3p-q & FIG. 11g). […] In total, SSC lineage derived Csf1 might drive increased bone resorption by stimulating higher osteoclast activity, and this activity needs to be maintained and finely balanced for proper bone health.
Bi-cortical femoral fracture: Animals were anaesthetized using aerosolized isoflurane and analgesia was administered before incision. The femur was exposed following muscle distraction and lateral dislocation of the patella. […]
Micro-computed tomography: Femora were harvested and cleaned of soft tissue. […] Reconstructed samples were analyzed using CT Analyser and CTvox software (Bruker). Trabecular bone parameters of uninjured femur bones were assessed by analyzing a region of 200 sections which was defined 50 sections distal of the end of the growth plate. Fracture calluses were analyzed by selecting 150 sections in both directions of the fracture gap yielding a total area of 300 sections. […]

B1: recombinant Csf1: recombinant Csf1 (5 μg) in hydrogel with defined release kinetics, applied to fractures (protein, UniProt P07141 33-552, looked up)
Macrophage colony-stimulating …: KEVSEHCSHMIGNGHLKVLQQLIDSQMETSCQIAFEFVDQEQLDDPVCYLKKAFFLVQDIIDETMRFKDNTPNANATERLQELSNNLNSCFTKDYEEQNKACVRTFHETPLQLLEKIKNFFNETKNLLEKDWNIFTKNCNNSFAKCSSRDVVTKPDCNCLYPKATPSSDPASASPHQPPAPSMAPLAGLAWDDSQRTEGSSLLPSELPLRIEDPGSAKQRPPRSTCQTLESTEQPNHGDRLTEDSQPHPSAGGPVPGVEDILESSLGTNWVLEEASGEASEGFLTQEAKFSPSTPVGGSIQAETDRPRALSASPFPKSTEDQKPVDITDRPLTEVNPMRPIGQTQNNTPEKTDGTSTLREDHQEPGSPHIATPNPQRVSNSATPVAQLLLPKSHSWGIVLPLGELEGKRSTRDRRSPAELEGGSASEGAARPVARFNSIPLTDTGHVEQHEGSSDPQIPESVFHLLVPGIILVLLTVGGLLFYKWKWRSHRDPQTLDSSVGRPEDSSLTQDEDRQVELPV
modifications: in hydrogel
notes: recombinant Csf1 (5 μg) in hydrogel with defined release kinetics, applied to fractures
  Fracture healing (μCT of day-10 calluses): impaired healing
  SSC frequency at day-10 (flow cytometry): without alteration of SSC frequency
